Reference: publication PMC8163871, “Structures of the human LONP1 protease reveal regulatory steps involved in protease activation” (Nature Communications, 2021)
Numbering of substitutions follows the chain as printed. Names may count otherwise.

Key:
[1] = target: the molecule itself; experiment: cryo-EM structure; wild-type LONP1 2.5 mg/ml in 50 mM Tris pH 8, 75 mM KCl, 10 mM MgCl2, 1 mM TCEP, 1 mM ATPγS; substrate-free (~3.4 Å) and substrate-bound (~3.2 Å) conformations from one sample; LONP1 with itself
[2] = target: the molecule itself; experiment: cryo-EM structure; Walker B (E591A) LONP1 2.5 mg/ml in 50 mM Tris pH 8, 75 mM KCl, 10 mM MgCl2, 1 mM TCEP, 1 mM ATP; ~4.8 Å; LONP1 with itself
[3] = target: the molecule itself; experiment: cryo-EM structure; LONP1 2.5 mg/ml in 50 mM Tris pH 8, 75 mM KCl, 10 mM MgCl2, 1 mM TCEP, 1 mM ATPγS with 10-fold molar excess bortezomib; ~3.2 Å; LONP1 with itself

B1: human LONP1 (mature, lacking its N-terminal mitochondrial targeting sequence), wild type (enzyme, UniProt P36776 115-959, looked up)
chain: MTIPDVFPHLPLIAITRNPVFPRFIKIIEVKNKKLVELLRRKVRLAQPYVGVFLKRDDSNESDVVESLDEIYHTGTFAQIHEMQDLGDKLRMIVMGHRRVHISRQLEVEPEEPEAENKHKPRRKSKRGKKEAEDELSARHPAELAMEPTPELPAEVLMVEVENVVHEDFQVTEEVKALTAEIVKTIRDIIALNPLYRESVLQMMQAGQRVVDNPIYLSDMGAALTGAESHELQDVLEETNIPKRLYKALSLLKKEFELSKLQQRLGREVEEKIKQTHRKYLLQEQLKIIKKELGLEKDDKDAIEEKFRERLKELVVPKHVMDVVDEELSKLGLLDNHSSEFNVTRNYLDWLTSIPWGKYSNENLDLARAQAVLEEDHYGMEDVKKRILEFIAVSQLRGSTQGKILCFYGPPGVGKTSIARSIARALNREYFRFSVGGMTDVAEIKGHRRTYVGAMPGKIIQCLKKTKTENPLILIDEVDKIGRGYQGDPSSALLELLDPEQNANFLDHYLDVPVDLSKVLFICTANVTDTIPEPLRDRMEMINVSGYVAQEKLAIAERYLVPQARALCGLDESKAKLSSDVLTLLIKQYCRESGVRNLQKQVEKVLRKSAYKIVSGEAESVEVTPENLQDFVGKPVFTVERMYDVTPPGVVMGLAWTAMGGSTLFVETSLRRPQDKDAKGDKDGSLEVTGQLGEVMKESARIAYTFARAFLMQHAPANDYLVTSHIHLHVPEGATPKDGPSAGCTIVTALLSLAMGRPVRQNLAMTGEVSLTGKILPVGGIKEKTIAAKRAGVTCIVLPAENKKDFYDLAAFITEGLEVHFVEHYREIFDIAFPDEQAEALAVER
notes: human LONP1, mature mitochondrial-matrix form with methionine 115 as its first residue; residues ~420-947 resolved in the cryo-EM maps; pET20b-His6-LONP1; no removal of the His6 tag is described; Incubated with ATPγS for cryo-EM; also called His6-LONP1; WT LONP1; source: E. coli Rosetta 2(DE3)pLysS, purified (TALON cobalt resin, Superose 6 size exclusion)
- stoichiometry N [1]: 6

B2: Walker B LONP1 mutant (E591A) (enzyme, human, UniProt P36776 115-959, looked up)
chain: B1 chain with E477A
notes: human LONP1, mature form with methionine 115 as its first residue, with the Walker B mutation E591 to A591; Made by QuikChange from pET20b-His6-LONP1, expressed and purified as the wild type; Structure determined with ATP; also called WalkerB mutant LONP1; source: E. coli Rosetta 2(DE3)pLysS, purified (TALON cobalt resin, Superose 6 size exclusion)
- binding result [2]: binds

B3: LONP1^Bz: human LONP1 with bortezomib covalently attached to the catalytic serine (enzyme, UniProt P36776 115-959, looked up)
chain: B1 chain
modifications: bortezomib covalently attached to S855
notes: human LONP1, mature form with methionine 115 as its first residue; with ATPγS
- stoichiometry N [3]: 6
